From US20250122311A1 (YEDA RESEARCH AND DEVELOPMENT, published 2025)
Substitutions are numbered along the chain they refer to. Values belong to the binder of their own block, whether it stands above or below them.

Legend:
hen-egg white lysozyme [1] = target: T1, hen-egg white lysozyme (hen, UniProt P00698 19-147); experiment: yeast surface display of scFv, 240 nM lysozyme
T1 construct: also called HEWL

hen-egg white lysozyme [2] = target: T1, hen-egg white lysozyme; experiment: bilayer interferometry, IgG1 loaded on the sensor at 1 ug/mL, lysozyme at 1000, 250, 100, 25 and 10 nM
Experimental: FIGS. 5A-D present anti lysozyme antibody SDR-grafting: FIG. 5A. […] FIG. 5B. […] FIG. 5C. […] FIG. 5D. […] Lysozyme was at concentrations of […] and 1 μg/mL antibody was loaded onto the sensor.

hen-egg white lysozyme [3] = target: T1, hen-egg white lysozyme; experiment: surface plasmon resonance, Fab
[4] = target: T2, recombinant prostate-specific antigen (PSA) (human, UniProt P07288 25-261, limits assumed); experiment: ELISA of the protein G purified antibody on recombinant PSA
T2 construct: also called recombinant PSA; recombinantly produced PSA

[5] = target: T2, recombinant prostate-specific antigen …; experiment: immunoprecipitation with protein G after incubation with recombinant PSA; blot developed with a commercial anti-PSA antibody
Experimental: (§1) FIGS. 4A-E present anti-PSA clone 10 humanization: FIG. 4A. Four anti-PSA antibodies were expressed as chimeras and expression was measured through ELISA of the supernatant SEQ ID Nos.: 83/84, 85/86, 87/88, 81/82). […] FIG. 4B. Expression of five humanized designs for clone 10 was measured through ELISA of the supernatant. […] FIG. 4C. […] FIG. 4D. […] Membrane was developed with a commercial anti-PSA antibody. […] FIG. 4E.

[6] = target: T3, natively expressed PSA (supernatant of LNCaP cells) (human, UniProt P07288 25-261); experiment: immunoprecipitation with protein G after overnight incubation with LNCaP supernatant; blot developed with a commercial anti-PSA antibody
T3 construct: also called native PSA
Experimental: as §1

T1 sequence (P00698 19-147 limits assumed): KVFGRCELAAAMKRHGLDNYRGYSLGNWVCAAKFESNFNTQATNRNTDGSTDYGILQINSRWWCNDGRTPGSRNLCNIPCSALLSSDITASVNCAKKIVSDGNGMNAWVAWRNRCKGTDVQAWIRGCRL
T2 sequence (P07288 25-261 limits assumed): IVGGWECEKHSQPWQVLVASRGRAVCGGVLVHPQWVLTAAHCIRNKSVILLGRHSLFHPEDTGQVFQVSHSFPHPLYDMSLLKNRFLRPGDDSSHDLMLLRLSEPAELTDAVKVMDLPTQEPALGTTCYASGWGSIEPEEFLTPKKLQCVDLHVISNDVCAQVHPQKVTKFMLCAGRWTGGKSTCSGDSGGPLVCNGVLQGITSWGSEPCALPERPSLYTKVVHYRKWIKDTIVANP
T3 sequence (P07288 25-261 limits assumed): as above

B1: Anti-HEWL Design 6, scFv on yeast surface (scFv, V domains shown, not shown: large carriers; small tags and cut ends)
VH: EVQLVQSGAEVKKPGATVKISCKVSGYTFSTYWMEWVQQAPGKGLEWMGEVLPGSGSTYYAEKFQGRVTITADTSTDTAYMELSSLRSEDTAVYYCARGDGYFQHWGQGTLVTVSS
VL: EIVLTQSPDFQSVTPKEKVTITCRASQSISSNLHWYQQKPDQSPKLLIKYASQSFSGVPSRFSGSGSGTDFTLTINSLEAEDAATYYCHQSNSWPRTFGPGTKVDIK
notes: also called Des6 (scFv format)
- binding result (hen-egg white lysozyme [1]): binds

B2: Anti-HEWL Design 1, human IgG1 (antibody, V domains shown)
VH: B1 VH
VL: DIQMTQSPSSLSASVGDRVTITCRASQSISSNLNWYQQKPGKAPKLLIYYASSLQSGVPSRFSGSGSGTDFTLTISSLQPEDFATYYCQQSNSWPRTFGPGTKVDIKR
notes: also called Des 1; Des1
- Kd (hen-egg white lysozyme [2]): 11 nM

B3: Anti-HEWL Design 1, human Fab (Fab, V domains shown)
VH: B1 VH
VL: B2 VL
notes: The Fab heavy chain ends in a His tag; also called hαHEWL; design 1 (Fab)
- Kd (hen-egg white lysozyme [3]): 41.6 nM

B4: Anti-PSA Design 1 (humanized clone 10) (antibody, V domains shown)
VH: QVQLVQSGAEVKKPGSSVKVSCKASGYSFTDYNMNWVRQAPGQGLEWIGVISPDYGTPSYAQKFQGRVTITADESTSTAYMELSSLRSEDTAVYYCARGKGNYVVFAYWGQGTLVTVSS
VL: DIQMTQSPSSLSASVGDRVTITCKASQSVVNNVVWYQQKPGKAPKLLIYYASNRYSGVPSRFSGSGSGTDFTLTISSLQPEDFATYYCQQHYTSPLTFGPGTKVDIKR
notes: Full-length human IgG1/kappa chains; also called PSA1
- binding result [4]: binds

B5: Anti-PSA Design 2 (humanized clone 10) (antibody, V domains shown)
VH: B4 VH
VL: DIVMTQTPLSLSVTPGQPASISCKASQSVVNNVVWYLQKPGQPPQLLIYYASNRYSGVPDRFSGSGSGTDFTLKISRVEAEDVGVYYCQQHYTSPLTFGPGTKVDIKR
notes: Full-length human IgG1/kappa chains; also called PSA2
- binding result [4]: binds

The remaining lines, values ahead:

- binding result [5]: binds
- binding result [6]: binds
B6: Anti-PSA Design 4 (humanized clone 10) (antibody, V domains shown)
VH: QVQLQESGPGLVKPSETLSLTCTVSGYSFTDYNMNWIRQPPGKGLEWIGVISPDYGTPSYNPSLKSRVTISVDTSKNQFSLKLSSVTAADTAVYYCARGKGNYVVFAYWGQGTLVTVSS
VL: B4 VL with D70E
notes: Full-length human IgG1/kappa chains; also called PSA4

- binding result [4]: binds
B7: Anti-PSA Design 3 (humanized clone 10) (antibody, V domains shown)
VH: B4 VH with Q1E, S16A, S17T, V20I, A24V, R38Q, Q43K, Q62E, E74T, S77D
VL: DIVMTQSPDSLAVSLGERATINCKASQSVVNNVVWYQQKPGQPPKLLIYYASNRYSGVPDRFSGSGSGTDFTLTISSLQAEDVAVYYCQQHYTSPLTFGPGTKVDIKR
notes: Full-length human IgG1/kappa chains; also called PSA3

- binding result [5]: binds
B8: Anti-PSA Design 5 (humanized clone 10) (antibody, V domains shown)
VH: B4 VH with Q1E, S16A, S17T, V20I, A24V, R38Q, Q43K, Q62E, E74T, S77D
VL: B4 VL with D70E
notes: Full-length human IgG1/kappa chains; also called PSA5
